Reference: article PMC7949164

T1: myc-tagged mouse Ccr1 Y18F mutant (mouse) (UniProt P51675)
T1 sequence: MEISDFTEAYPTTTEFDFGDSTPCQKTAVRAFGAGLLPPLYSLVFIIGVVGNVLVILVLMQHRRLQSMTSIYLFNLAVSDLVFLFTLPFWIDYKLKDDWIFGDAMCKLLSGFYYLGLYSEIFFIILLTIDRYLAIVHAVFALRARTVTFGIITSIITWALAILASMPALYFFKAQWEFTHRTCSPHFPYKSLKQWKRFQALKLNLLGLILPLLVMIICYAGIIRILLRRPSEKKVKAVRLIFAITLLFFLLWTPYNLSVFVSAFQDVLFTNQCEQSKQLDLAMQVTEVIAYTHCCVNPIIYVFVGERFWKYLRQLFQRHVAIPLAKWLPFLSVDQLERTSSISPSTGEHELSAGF

B1: recombinant mouse Ccl3 (ligand)
chain: APYGADTPTACCFSYSRKIPRQFIVDYFETSSLCSQPGVIFLTKRNRQICADSKETWVQEYITDLELNA

Molecular target: T1, myc-tagged mouse Ccr1 Y18F mutant (mouse)

| Molecule | internalisation: cell surface receptor left (MFI in % of buffer alone) after 100 nM chemokine, FACS, L1.2 cells (% cell surface receptor) |
| --- | --- |
| recombinant mouse Ccl9/10 (ligand) | 20 |
| B1 | 35 |
